Test results from patent US12187785B2, “Recombinant protein and fragments thereof, method for producing said recombinant protein, synthetic gene and use of sculptin or recombinant protein for preparing a medicament or pharmaceutical composition for the prophylaxis and/or treatment of thromboembolic diseases or as a direct and specific …” (priority 2017, dated 2025).

Tests used:
isolated human plasma = assay: Thrombin time (TT) in isolated human plasma; format: biochemical; settings: plasma of healthy human volunteers, incubation 3 min. at 37° C.
Experimental: Plasma was obtained from blood of healthy human volunteer and incubated with different concentrations of recombinant protein. APTT, PT and TT were determined like experimental procedure. (A) Activated partial thromboplastin time (B) prothrombin time and (C) thrombin time. Ctrl is related to plasma and Sal is related to plasma plus saline.
Finally, PT, aPTT and TT were assessed in isolated plasma of healthy human volunteers following incubation with recombinant protein for 3 min. at 37° C. […] Maximum test reading for aPTT was achieved following 12 nM, while for PT that was achieved following 6 nM of recombinant protein (FIGS. 11A and 11B).

trypsin = target: T1, trypsin (Bos taurus, UniProt P00760); assay: Serine protease inhibition test, trypsin (chromogenic substrate); format: biochemical; settings: recombinant protein 1, 100, 200 nM; protease 100 pM; 6 h at 37° C.
T1 construct: gene PRSS1
T1 sequence (P00760 24-246): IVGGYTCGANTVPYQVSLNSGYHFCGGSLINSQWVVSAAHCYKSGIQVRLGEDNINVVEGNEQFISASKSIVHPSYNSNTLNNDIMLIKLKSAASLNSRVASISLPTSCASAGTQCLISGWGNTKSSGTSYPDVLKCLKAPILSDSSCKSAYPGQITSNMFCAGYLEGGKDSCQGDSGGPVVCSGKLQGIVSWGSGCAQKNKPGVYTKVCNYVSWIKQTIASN
Experimental: (A) Inhibition of serine proteases through recombinant protein. Serine protease (100 pM; thrombin, plasmin, trypsin or factor Xa) was incubated with recombinant protein (1, 100 and 200 nM) in phosphate buffer 50 mM containing NaCl 150 mM and 0.1% of PEG 6000, pH 7.4 for 6 h at 37° C. Following addition of chromogenic substrate corresponding to reaction mixture, hydrolysis thereof was monitored at 405 nm. For factor Xa activity, buffer contained phosphatidylserine and phosphatidylcholine 50 μM. […] (B) Typical curves for hydrolysis of chromogenic substrate S-2238 (15 μM) by thrombin 0.1 nM in absence (trace a) or presence of recombinant protein (trace b, 15 pM; trace c, 30 pM; trace d, 60 pM and trace e, 100 pM) in phosphate buffer 50 mM containing NaCl 150 mM and 0.1% of PEG 6000, pH 7.4 at 37° C. (C) Residual activity of thrombin in presence of increasing concentration of recombinant protein. (D) Dose-response curves for thrombin inhibition by recombinant protein. Percentage of thrombin inhibition was plotted versus the concentration record of recombinant protein. Experimental condition of (C) and (D) is the same as in (B).
The first performed experiment was the test of serine proteases inhibition through recombinant protein. […] Hydrolysis of a chromogenic substrate through serine proteases in the presence and absence of recombinant protein was monitored in a spectrophotometer way. […]

B1: GKPQGHPHDALEARSDAVHTAVPKMPKGGHGGFEPIPIDYDERALEARSDAVHTAVPKMPKGGLGGFEPIPIDYDERALEARSDAVHTAVPKMPKGGHGGFEPIPIDYDERALEARSDAVHTAVPKMPKGGHGGFEPIPIDYDERALHALEHHHHHH (protein)
chain: GKPQGHPHDALEARSDAVHTAVPKMPKGGHGGFEPIPIDYDERALEARSDAVHTAVPKMPKGGLGGFEPIPIDYDERALEARSDAVHTAVPKMPKGGHGGFEPIPIDYDERALEARSDAVHTAVPKMPKGGHGGFEPIPIDYDERALHALEHHHHHH
modifications: Sculptin recombinat protein
notes: recombinant His-tagged protein modified from tick sculptin, expressed in E. coli
Isolated human plasma
  TT: prolonged by recombinant protein in peak-molar range
trypsin
  inhibition of trypsin: did not inhibit
